According to patent publication US20260053892A1, “Induction and Expansion of Regulatory T Cells” (Board of Regents of the University of Nebraska, priority 2022, published 2026):

B1: granulocyte-macrophage colony-stimulating factor (protein, UniProt P01587 18-141, looked up)
Granulocyte-macrophage …: APTRSPITVTRPWKHVEAIKEALNLLDDMPVTLNEEVEVVSNEFSFKKLTCVQTRLKIFEQGLRGNFTKLKGALNMTASYYQTYCPPTPETDCETQVTTYADFIDSLKTFLTDIPFECKKPGQK
notes: granulocyte-macrophage colony-stimulating factor, immunomodulatory growth factor; 0.1 mg/kg i.p. in mice

How the values were obtained:
[1] = 3 or 6 μg/kg/day, cited from earlier work
[2] = system: Tregs; assay: Treg profiles by flow cytometry in blood, lymph nodes and spleen of treated mice; assay type: in vivo, C57BL/6 male mice
Description: C57BL/6 male mice (5-6 weeks old) were purchased from Jackson Laboratories (Bar Harbor, ME). […] Following a period of acclimation, mice were injected intraperitoneally (i.p.) with daily GM-CSF (Group 4) (Days 0-4). […] On Day 10, the mice were sacrificed, blood was collected, and spleen and lymph nodes were harvested.
Following treatment, whole blood, lymph nodes and spleens were collected to determine T-cell profiles via flow cytometric analysis. Peripheral blood, lymph nodes, and splenocytes were fluorescently labeled using antibodies against cell surface antigens including CD3, CD4, CD25, CD8, CD19, CD127, ICOS, GITR, CD39, CD62L, CD44, GITR, and CTLA-4, and for the intracellular markers FoxP3 and STAT5. Whole blood, lymph nodes, and splenocytes were labeled with PerCP Cyanine 5.5-anti-CD3 (eBioscience/Thermo Fisher Scientific, Waltham, MA), APC-anti-CD19 (eBiosciences), PE-anti-CD25 (eBiosciences), PE-cyanine7-anti-CD4 (eBiosciences), PerCP-eFluor710-anti-CD39 (eBiosciences), Alexa Fluor™ 488-anti-CD278 (ICOS) (Biolegend, San Diego, CA), FITC-anti-CD127 (Biolegend), FITC-anti-CD44, Alexa Fluor™ 488-anti-CTLA-4, Alexa Flour™ 700-anti-GITR, FITC-anti-CD8, and PerCP Cyanine 5.5-anti-CD62L. Intracellular staining was performed following permeabilization for 45 minutes at 4° C. Cells were labeled with APC-anti-FoxP3 (eBioscience) or anti-STAT5-Pacific Blue. Samples were analyzed with an LSRII flow cytometer and FACSDiva™ Software (BD Biosciences, San Diego, CA).
All values are expressed as mean±SEM using ANOVA (mean±SEM, n=3). *=p≤0.05; **=p≤0.01; *** p≤0.001. Data were analyzed using GraphPad Prism 9.3.1 software (La Jolla, CA).

[3] = in vivo; cited from earlier work

Molecule	Treg numbers [1]	Unified Parkinson's Disease Rating Scale (UPDRS) scores [1]	Safety and tolerability ([1]; low doses)	CD4+CD25+FOXP3+ Tregs ([2]; blood, FIG. 4)	CD25+CD127− Tregs ([2]; blood, FIG. 5)	CD25+ICOS+ Tregs ([2]; blood, FIG. 7)	CD4+CD25+ Tregs ([2]; lymph nodes, FIG. 2)	CD25+GITR+ Tregs ([2]; lymph nodes, FIG. 9)	CD4+CD25+FOXP3+ Tregs ([2]; spleen, FIG. 3)	CD25+CD127− Tregs ([2]; spleen, FIG. 6)	CD25+ICOS+ Tregs ([2]; spleen, FIG. 8)	CD25+CD39+ Tregs ([2]; spleen, FIG. 10)	CD25+CD62L− Tregs ([2]; spleen, FIG. 11)	half-life [3]
sargramostim: human recombinant GM-CSF (sargramostim, Leukine®)	increased	modestly improved	safe and well-tolerated	–	–	–	–	–	–	–	–	–	–	–
B1	–	–	–	did not induce	did not induce	did not significantly induce	only a mild increase	did not induce	did not induce	did not induce	did not significantly induce	did not induce	did not significantly induce	six
